Reference: paper PMC8498194

Target: hnRNP A1B (heterogenous ribonucleoprotein A1B), mouse (mouse (endogenous in C57BL6/N tissues))
Assay: SDS-PAGE immunoblot of tissue lysates (SDS-resistant band); 15 ug of mouse tissue lysate (2 month-old mice, CNS and peripheral tissues) on 12.5% SDS-PAGE, blotted with anti-hnRNP A1B (custom) or anti-hnRNP A1 (4B10)

stoichiometry N: 2
Substance: hnRNP A1B (heterogenous ribonucleoprotein A1B), mouse (natural protein)
